The data set deals with the molecule itself. As to the kind of experiment: SDS-PAGE/CBB staining of sucrose gradient liposome fractions; self-association (homo-tetramer).

B1: E. coli-derived water channel (AQPZ), full-length, with N-terminal native His tag and TEV protease recognition site, cell-free synthesized (other)
chain: MKDHLIHNVHKEEHAHAHNKDYDIPTTENLYFQGSSGSSGMFRKLAAECFGTFWLVFGGCGSAVLAAGFPELGIGFAGVALAFGLTVLTMAFAVGHISGGHFNPAVTIGLWAGGRFPAKEVVGYVIAQVVGGIVAAALLYLIASGKTGFDAAASGFASNGYGEHSPGGYSMLSALVVELVLSAGFLLVIHGATDKFAPAGFAPIAIGLALTLIHLISIPVTNTSVNPARSTAVAIFQGGWALEQLWFFWVVPIVGGIIGGLIYRTLLEKRD
notes: No cleavage of the tag by TEV is reported before the gels; Purified in DDM for Blue-Native PAGE, and in a phosphatidylcholine liposome fraction for SDS-PAGE; also called cell-free synthesized AQPZ
Turning to B1, the binding result is given as “binds”.

The record behind these values is US20100291189A1 (RIKEN, published 2010).
